± gives the uncertainty stated by the source.

The series is described as follows: self-splicing fitness, log relative to wild type (ln ratio); higher = more splicing; Tetrahymena group I intron in knt gene, E. coli kanamycin selection, DiMSum; sequences stand for … in CUCUCU…GGAGGGAAAAGUUAUCAGGCAUGCACCUGGUAGCUAGUCUUUAAACCAAUAGAUUGCAUCGGUUUAAAAGGCAAGACCGUCAAAUUGCGGGAAAGGGGUCAACAGCCGUUCAGUACCAAGUCUCAGGGGAAACUUUGAGAUGGCCUUGCAAAGGGUAUGGUAAUAAGCUGACGGACAUGGUCCUAACCACGCAGCCAAGUCCUAAGUCAACAGAUCUUCUGUUGAUAUGGAUGCAGUUCACAGACUAAAUGUCGGUCGGGGAAGAUGUAUUCUUCUCAUAAGAUAUAGUCGGACCUCUCCUUAAUGGGAGCUAGCGGAUGAAGUGAUGCAACACUGGAGCCGCUGGGAACUAAUUUGUAUGCGAAAGUAUAUUGAUUAGUUUUGGAGUACUCGUGGUCG
The method in brief:
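Six replicate transformations of E. coli BL21(DE3) with a pET-22b(+) library were grown overnight at 37°C or 30°C. The library randomised all eight P1ex-region intron nucleotides, the intron lying in the knt kanamycin-resistance gene, and plates were LB agar with or without 25 μg/mL kanamycin plus 100 μg/mL carbenicillin, 50 μM IPTG and 0.2% rhamnose. Pooled colonies were amplicon-sequenced on an Illumina HiSeq 2500, and fitness is the DiMSum error-weighted combination of wild-type-normalised replicate fold changes, kanamycin versus none.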

Take GUUAAGCAAUAUUACGAGUC: the “self-splicing fitness (ln)” value (30 °C) is -3.05 ± 0.12 and the “self-splicing fitness (ln)” value (37 °C) is -1.86 ± 0.15.

Regarding UCCCAGCAAUAUUACGAGGC, the “self-splicing fitness (ln)” value (30 °C) is -2.23 ± 0.14 and the “self-splicing fitness (ln)” value (37 °C) was -0.738 ± 0.14.

Consider GAAUAGCAAUAUUACGUAGU, for which the “self-splicing fitness (ln)” value was -2.61 ± 0.12 (30 °C) and -1.99 ± 0.18 (37 °C).

With GUGAAGCAAUAUUACGUGCC, the “self-splicing fitness (ln)” value was -1.92 ± 0.32 (30 °C) and -1.32 ± 0.36 (37 °C).

As for ACUGAGCAAUAUUACGCAUC, the “self-splicing fitness (ln)” value reads like this: (30 °C) -2.22 ± 0.24; (37 °C) -2.08 ± 0.24.

With GAGCAGCAAUAUUACGGGGG, the “self-splicing fitness (ln)” value was -3.36 ± 0.26 (30 °C) and -2.46 ± 0.32 (37 °C).

Turning to AACGAGCAAUAUUACGCACA, the “self-splicing fitness (ln)” value was -2.86 ± 0.23 (30 °C) and -2.09 ± 0.21 (37 °C).

UACGAGCAAUAUUACGGCAG: the “self-splicing fitness (ln)” value is, setting by setting: (30 °C) -2.22 ± 0.23; (37 °C) -1.65 ± 0.21.

As for GCUAAGCAAUAUUACGCCUA, the “self-splicing fitness (ln)” value is, setting by setting: (30 °C) -1.55 ± 0.3; (37 °C) -0.198 ± 0.2.

For AGCUAGCAAUAUUACGUACU, the “self-splicing fitness (ln)” value runs as follows: (30 °C) -0.454 ± 0.095; (37 °C) -0.144 ± 0.12.

With UUAUAGCAAUAUUACGAUUA, the “self-splicing fitness (ln)” value was -0.871 ± 0.11 (30 °C) and -0.272 ± 0.13 (37 °C).

For AAUCAGCAAUAUUACGGUUG, the “self-splicing fitness (ln)” value by setting is: (30 °C) -1.91 ± 0.082; (37 °C) -0.913 ± 0.1.

For UUCAAGCAAUAUUACGGCUC, the “self-splicing fitness (ln)” value (30 °C) is -1.68 ± 0.17 and the “self-splicing fitness (ln)” value (37 °C) was -0.923 ± 0.23.

CGCUAGCAAUAUUACGUGUC: the “self-splicing fitness (ln)” value is -2.34 ± 0.13 (30 °C) and -2.78 ± 0.17 (37 °C).

For the sequence CCGGAGCAAUAUUACGUAAA, the “self-splicing fitness (ln)” value was -3.29 ± 0.25 (30 °C) and -2.09 ± 0.47 (37 °C).

In the case of AACCAGCAAUAUUACGGUUC, the “self-splicing fitness (ln)” value was -3.75 ± 0.14 (30 °C) and -2.43 ± 0.17 (37 °C).

Consider UGCCAGCAAUAUUACGUGAA, for which the “self-splicing fitness (ln)” value is, setting by setting: (30 °C) -1.73 ± 0.09; (37 °C) -0.422 ± 0.1.

Consider CCGAAGCAAUAUUACGGAGA, for which the “self-splicing fitness (ln)” value runs as follows: (30 °C) -2.52 ± 0.25; (37 °C) -2.68 ± 0.34.

Turning to GGCAAGCAAUAUUACGAGUU, the “self-splicing fitness (ln)” value was -1.94 ± 0.081 (30 °C) and -0.521 ± 0.088 (37 °C).

UGAUAGCAAUAUUACGGUAU: the “self-splicing fitness (ln)” value reads like this: (30 °C) -3.75 ± 0.22; (37 °C) -1.92 ± 0.18.

Take GGUGAGCAAUAUUACGUUUA: the “self-splicing fitness (ln)” value runs as follows: (30 °C) -3.01 ± 0.28; (37 °C) -1.44 ± 0.18.

With GCCUAGCAAUAUUACGCGAU, the “self-splicing fitness (ln)” value (30 °C) was -3.87 ± 0.24 and the “self-splicing fitness (ln)” value (37 °C) was -1.68 ± 0.16.

In the case of UAGCAGCAAUAUUACGCCAG, the “self-splicing fitness (ln)” value was -1.46 ± 0.13 (30 °C) and -0.751 ± 0.19 (37 °C).

As for GCGUAGCAAUAUUACGCCAG, the “self-splicing fitness (ln)” value is -3.15 ± 0.41 (30 °C) and -2.32 ± 0.37 (37 °C).

Consider AUGCAGCAAUAUUACGCCAC, for which the “self-splicing fitness (ln)” value by setting is: (30 °C) -2.31 ± 0.47; (37 °C) -2.1 ± 0.36.

CUAGAGCAAUAUUACGUACC: the “self-splicing fitness (ln)” value (30 °C) was -4.52 ± 0.24 and the “self-splicing fitness (ln)” value (37 °C) is -3.09 ± 0.35.

Consider GUUUAGCAAUAUUACGGCGC, for which the “self-splicing fitness (ln)” value is, setting by setting: (30 °C) 0.141 ± 0.16; (37 °C) 0.337 ± 0.17.

Regarding AUUCAGCAAUAUUACGAAGC, the “self-splicing fitness (ln)” value is -3.62 ± 0.27 (30 °C) and -1.32 ± 0.17 (37 °C).

Consider CAUCAGCAAUAUUACGACUA, for which the “self-splicing fitness (ln)” value runs as follows: (30 °C) -1.26 ± 0.13; (37 °C) -0.0399 ± 0.13.

For AUCUAGCAAUAUUACGUAGU, the “self-splicing fitness (ln)” value is, setting by setting: (30 °C) -1.83 ± 0.096; (37 °C) -0.758 ± 0.11.

On to GAAAAGCAAUAUUACGACGU, for which the “self-splicing fitness (ln)” value (30 °C) was 0.263 ± 0.088 and the “self-splicing fitness (ln)” value (37 °C) turned out to be 0.769 ± 0.099.

For CAUCAGCAAUAUUACGCUUU, the “self-splicing fitness (ln)” value reads like this: (30 °C) -2.23 ± 0.097; (37 °C) -1.34 ± 0.1.

Turning to CAUGAGCAAUAUUACGGGCU, the “self-splicing fitness (ln)” value reads like this: (30 °C) -3.53 ± 0.16; (37 °C) -2.11 ± 0.15.

GGAGAGCAAUAUUACGUGUG: the “self-splicing fitness (ln)” value by setting is: (30 °C) -4.29 ± 0.34; (37 °C) -3.29 ± 0.27.

On to CACUAGCAAUAUUACGUUCA, for which the “self-splicing fitness (ln)” value is, setting by setting: (30 °C) -2.34 ± 0.17; (37 °C) -2.49 ± 0.2.

As to CAACAGCAAUAUUACGGAAG, the “self-splicing fitness (ln)” value (30 °C) is -0.947 ± 0.045 and the “self-splicing fitness (ln)” value (37 °C) is -0.607 ± 0.061.

On to GUUUAGCAAUAUUACGAGAC, for which the “self-splicing fitness (ln)” value was -3.35 ± 0.49 (30 °C) and -2.08 ± 0.32 (37 °C).

The record behind these values is the supplement of paper PMC7877785.
